Publication PMC10402242

Molecular target: T1, macrophage migration inhibitory factor (MIF) (human (endogenous in MCF-7)), P14174
T1 chain: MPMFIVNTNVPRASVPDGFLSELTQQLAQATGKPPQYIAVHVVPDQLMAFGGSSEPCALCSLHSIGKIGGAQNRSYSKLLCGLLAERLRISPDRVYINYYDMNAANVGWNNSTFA
Test: native MS; native top-down proteomics: whole cell lysates of MCF-7 and MCF-7-EGFR (EGFR-overexpressing) cells fractionated by native SEC, concentrated with molecular weight cutoff filters, direct ESI infusion FAIMS-MSn with HCD, Orbitrap detection; endogenous assemblies
Details: remark: other sources report otherwise

B1: macrophage migration inhibitory factor (MIF), P14174 1-115 (natural protein)
chain: T1 chain
modifications: here or on the partner: proteoforms released from the trimers: unmodified, nitrosylated at C80, acetylated at K77, truncated; phosphorylated subunits also reported (site not given); proteoforms released from the trimers: unmodified, nitrosylated at C80, acetylated at K77, truncated; phosphorylated subunits also reported (site not given)
stoichiometry N: 3
